Residue numbers refer to the chain shown, from its start.
B1: mAb 186 (antibody, V domains shown)
VH: QVTLKESGPALVKPTQTLTLTCTFSGFSLTTSGMCVSWIRQPPGKALEWLALIYWDDDKRYNPSLRSRLTITKDTSKNQVVLTMTNMDPVDTATYYCARSYDDYLYYALDYWGQGTLVT
VL: DVVMTQSPSSLSASVGGRVTITCRASQTIGDYLNWYQQKPGKAPRLLIYSASIVQSGVPSRFSASGSGTDFTLTISSLQPEDFATYSCQQSYSFPLTFGGGTKLEIK
B2: mAb 191 (antibody, V domains shown)
VH: B1 VH
VL: B1 VL with K39R, A64G, D70H
B3: mAb 275 (antibody, V domains shown)
VH: B1 VH
VL: DIQMTQSPSSLSAFVGDGVTMTCWASQSINDYLNWYHQRPGEAPELLVFAASNLQIGVPSRFRGSGSETYFTLTINSLQPEDSGTYFCQNGHSFPLTFGGGTKLEI
B4: mAb 765 (antibody, V domains shown)
VH: QVTLKESGPTLVKPTQTLTLTCSFSGFSLSTSGVGVGWVRQPPGKALEWLAFIFWDDDKYYSPSLESRLTITKDTSKNQVVLTMTNMDPVDTATYYCARSYDDYLYYALDYWGQGTLVT
VL: B3 VL with G91A
B5: mAb 770 (antibody, V domains shown)
VH: B4 VH
VL: B3 VL with N90H
B6: mAb 774 (antibody, V domains shown)
VH: B4 VH
VL: B3 VL with N90S
B7: mAb 808 (antibody, V domains shown)
VH: B4 VH
VL: B3 VL with H92W
B8: mAb 810 (antibody, V domains shown)
VH: B4 VH with A108S
VL: B3 VL
B9: mAb 963 (antibody, V domains shown)
VH: B4 VH with Y101G
VL: B3 VL
B10: mAb 968 (antibody, V domains shown)
VH: B4 VH with L109F
VL: B3 VL
B11: mAb 992 (antibody, V domains shown)
VH: B4 VH with Y111T
VL: B3 VL
B12: mAb 1123 (antibody, V domains shown)
VH: B4 VH with S100F
VL: B3 VL
B13: mAb 1127 (antibody, V domains shown)
VH: B4 VH with Y106M
VL: B3 VL
B14: mAb 1154 (antibody, V domains shown)
VH: B4 VH with Y101A, A108S, L109F, Y111T
VL: B3 VL
B15: mAb 1155 (antibody, V domains shown)
VH: B4 VH with Y101A, A108S, L109F, Y111T
VL: B3 VL with N90H
B16: mAb 1156 (antibody, V domains shown)
VH: B4 VH with Y101A, A108S, L109F, Y111T
VL: B3 VL with N90S
B17: mAb 1192 (antibody, V domains shown)
VH: B4 VH with F54W
VL: B3 VL
B18: mAb 187 (antibody, V domains shown)
VH: B1 VH
VL: EIVLTQSPSSLSASAGDTVTIACRASQGIRTALAWYQQKPGRNPKLLISEAYRLQSGVSPKFSGSGFGTDFTLTINSLQPEDFATYYCQQFNDFPLTFGGGTKLEIK
B19: mAb 188 (antibody, V domains shown)
VH: B1 VH
VL: DIQMTQSPSTLSASVGDRVTITCRASQSISRWLAWYQQKPGKAPKLLISKASSLEYGVPSRFSGSGSGTEFALTISNVQPEDFATYYCQQSFAVPLTFGGGTKLEIK
B20: mAb 189 (antibody, V domains shown)
VH: B1 VH
VL: DIQMTQSPSSLSAFVGDGVTMTCWASQSINDYLNWYHQRPGEAPELLVFAASNLQIGVPSRFRGSGSETYFTLTINSLQPEDSGTYFCQQTSSFPLTFGGGTKLE
B21: mAb 201 (antibody, V domains shown)
VH: B1 VH with Y101H
VL: B20 VL
B22: mAb 190 (antibody, V domains shown)
VH: B1 VH
VL: DIQMTQSPSSLSASVGDSVTITCRASQTISDFLNWYQQKPGKAPKLLIHASSNLQSGVPSRFSGSGSGTDFTLTISDLQPEDFATYSCQQTYSTLGTFGQGTRLE
B23: mAb 202 (antibody, V domains shown)
VH: B1 VH with Y101H
VL: B22 VL
B24: mAb 192 (antibody, V domains shown)
VH: B1 VH
VL: DIVMTQSPSSLSASVGDRVTITCRASRNINTYLNWYQQKPGKAPKLLVHSASTLQSGAPSRFSGSGYGTEFTLIISSLQPDDFATYYCQQGYNTLTFGPGTKLE
B25: mAb 193 (antibody, V domains shown)
VH: B1 VH
VL: EIVLTQSPSSLSASVGDRVTISCRASQNIIDYLNWYQHKPGKVPTLLISGTSTLQSGVPSRFSGSGFGTDFTLTISSVQPEDVATYYCQQGHGTPLSFGGGTKLEIK
B26: mAb 205 (antibody, V domains shown)
VH: B1 VH with Y101H
VL: B25 VL
B27: mAb 185 (antibody, V domains shown)
VH: B1 VH
VL: DVVMTQSPSSVSASVGDRVTITCRASQVIDSWLHWYQREPGKAPKILIYAATTLQRGVPSRFSGSGFGTEFTLTISGLQPEDFATYFCQQGYSFPITFGQGTRLEIK
B28: mAb 197 (antibody, V domains shown)
VH: B1 VH with Y101H
VL: B27 VL
B29: mAb 123 (antibody, V domains shown)
VH: B1 VH with Y101H
VL: DIVMTQSPATLSVTPGDRVSLSCRASQSISDYLHWYQQKSHESPRLLIKSVSQSISGIPSRFSGSGSGSDFTLSINSVEPEDVGVYYCQNGHSFPLTFGAGTKLELK
B30: mAb 179 (antibody, V domains shown)
VH: B1 VH
VL: B29 VL
B31: mAb 239 (antibody, V domains shown)
VH: QVTLKESGPTLVKPTQTLTLTCIFSGFSFKTSGVSVGWIRQPPGKALEWLALIYWDDDKRYSPSLKNRLTITRDTSKNQVVLTMTNMDPVDTATYYCARSYDDYLYYALDYWGQGTLVT
VL: DVVMTQSPSSVSASVGDRVTITCRASQDIDNFLAWYQQKPGKAPNLLIYKVSSLRSGVPSRFSGSRSGTDFTLTITSLQPEDFATYFCQQTRRFPLTFGPGTKLE
B32: mAb 237 (antibody, V domains shown)
VH: B31 VH with I23T, F29L, K30R, I39F, I53V, K59R, S62N
VL: B31 VL
B33: mAb 241 (antibody, V domains shown)
VH: B4 VH
VL: B31 VL
B34: mAb 285 (antibody, V domains shown)
VH: B1 VH with T30S, A51T, N62S, R66E, S67T
VL: B31 VL
B35: mAb 286 (antibody, V domains shown)
VH: B1 VH with T30S, A51T, N62S, R66E, S67T
VL: DIVMTQSPSSLSASVGDRVTITCRASQTISSYLNWYQQKPGKPPKLLIYAASSLESGVPSRFSGSGSGTEFTLTISSLQPEDLATYYCQQANSFPLTFGGGTKLE

These binders were tested against T1, recombinant human IL-6 (human, UniProt P05231 30-212, limits assumed) (assay: competition ELISA, rhIL-6 in solution against captured IL-6).
T1 construct: also called rhIL6; human recombinant IL-6
Description: Briefly, plates were coated with 2 μg/ml of mBE4 capture antibody in coating buffer, 100 μl per well. The plates were incubated overnight. Next, the plates were washed 3 times and tapped dry. The plates were then blocked with 200 μl per well of Assay Diluent or 10% FBS in PBS and incubated for 2 hours. […] The reaction was left at RT for 3-4 hours. […] Next, the plates were washed 3 times and tapped dry. […] The plates were incubated for 1-2 hours. The plates were washed 3 times and tapped dry. […] The plates were incubated at RT for 2 hours. (Therefore, any unbound mAb at this point will be measured by ELISA). Plates were then washed 5 times and tapped dry. 100 μl of detection Ab goat anti-human IgG F(ab)′2-HRP (Jackson lab) was added at 1:20,000 dilutions or 1:40,000 dilutions (depending on lot) and the plates were incubated for 1-2 hours. The plates were washed 7 times and tapped dry. Next, the Developer Substrate (equal parts of each reagent in the kit) was pre-mixed and allowed to warm to room temperature before use. Then 100 μl of Developer was added to each well. The plates were allowed to develop for 15 minutes un-sealed in a drawer in the dark. Finally, developing was stopped by adding 100 μl of 2N H₂SO₄ to each well and plates were read as Endpoint at 450 nm-[…].

Binder | IC50
B1 | 2 nM
B2 | 1.5 nM
B3 | 0.7 nM
B4 | 0.07 nM
B5 | 0.12 nM
B6 | 0.16 nM
B7 | 0.08 nM
B8 | 0.22 nM
B9 | 0.09 nM
B10 | 0.053 nM
B11 | 0.065 nM
B12 | 0.11 nM
B13 | 0.09 nM
B14 | 0.027 nM
B15 | 0.032 nM
B16 | 0.023 nM
B17 | 0.029 nM
B18 | 2.4 nM

Binder | IC50
B19 | 1.4 nM
B20 | 0.72 nM
B21 | 2 nM
B22 | 1.9 nM
B23 | 2.4 nM
B24 | 2.3 nM
B25 | 2.7 nM
B26 | 7.4 nM
B27 | 1.5 nM
B28 | 3.7 nM
B29 | 1.1 nM
B30 | 0.85 to 4.2 nM
B31 | 9.6 nM
B32 | 6.5 nM
B33 | 6.5 nM
B34 | 2.5 nM
B35 | 2.5 nM

— patent US20080075726A1 (VACCINEX, published 2008)
